How the values were obtained:
Musashi-1 (MSI1) [1] = biological target: T1, Musashi-1 (MSI1) (Mus musculus (mouse), UniProt Q61474 1-362); assay: EMSA; 1 ug protein incomplete shift (two bands), 1.5 ug complete shift of 80 fmol probe; REMSA 1x binding buffer (LightShift kit), 0.125 mg/ml BSA, 80 fmol RNA, 1.5 ug protein, 20 ul, 20 min at RT; native 6% PAGE in 0.5x TBE pH 7.5 at 4 C; protein dialyzed in 20 mM TBE, 5 mM DTT; details: protein: recombinant; tags: His tag; label: 3' biotin; single strand
Musashi-1 (MSI1) [2] = biological target: T1, Musashi-1 (MSI1); assay: competition; free probe restored at 1250x (100 pmol) unlabeled RNA; 1.5 ug protein, 80 fmol labeled N1; REMSA 1x binding buffer (LightShift kit), 0.125 mg/ml BSA, 80 fmol RNA, 1.5 ug protein, 20 ul, 20 min at RT; native 6% PAGE in 0.5x TBE pH 7.5 at 4 C; protein dialyzed in 20 mM TBE, 5 mM DTT; details: protein: recombinant; tags: His tag; label: none; single strand

T1 sequence (Q61474 whole entry): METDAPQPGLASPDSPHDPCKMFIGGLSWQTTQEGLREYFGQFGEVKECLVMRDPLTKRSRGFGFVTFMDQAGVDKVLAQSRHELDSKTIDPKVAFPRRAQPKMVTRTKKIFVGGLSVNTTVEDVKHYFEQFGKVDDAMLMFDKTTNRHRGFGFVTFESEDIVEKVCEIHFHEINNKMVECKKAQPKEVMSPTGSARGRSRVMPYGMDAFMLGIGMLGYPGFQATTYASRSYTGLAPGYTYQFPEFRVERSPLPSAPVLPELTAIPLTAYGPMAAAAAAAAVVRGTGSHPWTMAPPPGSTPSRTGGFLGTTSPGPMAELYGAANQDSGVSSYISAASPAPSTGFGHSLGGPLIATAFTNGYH

Binder	binding result (Musashi-1 (MSI1) [1])	binding result (Musashi-1 (MSI1) [2])
GUUUAUAGCUAGAUUAGUUUAGCUGAAAGUUAAGUAGUUUGCAA (ssRNA) [cDio2 3'UTR RNA probe nt 2582-2625]	binds	–
GUUUAUAGCUAGAUUAGUUUAGCUGAAAGUUAAGUAGUUUGCAA (ssRNA) [unlabeled cDio2 3'UTR RNA competitor]	–	binds

Reference: article PMC11301063, “The Musashi-1–type 2 deiodinase pathway regulates astrocyte proliferation”
